Measured values as given in publication PMC5499601 (Nucleic Acids Research, 2017).

Legend:
Assay in all cases: EMSA
[1] = molecular target: T1, BsSpo0J H57E (UniProt P26497 1-282, H57E)
T1 sequence: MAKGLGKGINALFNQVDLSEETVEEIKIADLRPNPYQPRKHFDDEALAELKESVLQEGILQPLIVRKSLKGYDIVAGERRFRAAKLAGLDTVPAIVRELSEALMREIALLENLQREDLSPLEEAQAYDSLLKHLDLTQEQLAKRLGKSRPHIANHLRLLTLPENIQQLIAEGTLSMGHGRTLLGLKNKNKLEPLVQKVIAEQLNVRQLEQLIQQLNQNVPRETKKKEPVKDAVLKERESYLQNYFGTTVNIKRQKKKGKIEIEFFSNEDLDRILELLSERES

[2] = molecular target: T2, BsSpo0J Q61A (UniProt P26497 1-282, Q61A)
T2 sequence: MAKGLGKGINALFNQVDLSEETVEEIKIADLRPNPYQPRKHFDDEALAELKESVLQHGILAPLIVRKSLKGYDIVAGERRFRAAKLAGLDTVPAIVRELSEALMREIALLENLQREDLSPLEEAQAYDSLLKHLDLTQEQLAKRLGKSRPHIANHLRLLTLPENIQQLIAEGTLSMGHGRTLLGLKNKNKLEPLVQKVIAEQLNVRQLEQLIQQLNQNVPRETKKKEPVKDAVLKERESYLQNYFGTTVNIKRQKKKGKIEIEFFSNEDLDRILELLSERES

[3] = molecular target: T3, BsSpo0J E52R (UniProt P26497 1-282, E52R)
T3 sequence: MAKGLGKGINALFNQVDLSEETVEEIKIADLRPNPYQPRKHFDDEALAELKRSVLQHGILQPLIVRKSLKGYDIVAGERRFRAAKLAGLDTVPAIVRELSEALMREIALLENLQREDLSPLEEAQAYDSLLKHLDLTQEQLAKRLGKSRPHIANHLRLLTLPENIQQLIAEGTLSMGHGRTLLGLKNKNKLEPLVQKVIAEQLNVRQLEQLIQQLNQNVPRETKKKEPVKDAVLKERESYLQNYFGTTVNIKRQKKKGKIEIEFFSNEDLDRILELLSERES

[4] = molecular target: T4, BsSpo0J M104A (UniProt P26497 1-282, M104A)
T4 sequence: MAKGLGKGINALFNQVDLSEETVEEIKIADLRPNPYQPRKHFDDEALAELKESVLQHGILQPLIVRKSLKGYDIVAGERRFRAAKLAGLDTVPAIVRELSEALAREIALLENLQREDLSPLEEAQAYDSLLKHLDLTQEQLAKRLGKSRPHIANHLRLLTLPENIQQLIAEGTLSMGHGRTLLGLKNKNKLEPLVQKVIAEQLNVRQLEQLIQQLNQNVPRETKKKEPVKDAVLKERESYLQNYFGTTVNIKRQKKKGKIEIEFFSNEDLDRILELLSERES

[5] = molecular target: T5, BsSpo0J R105A (UniProt P26497 1-282, R105A)
T5 sequence: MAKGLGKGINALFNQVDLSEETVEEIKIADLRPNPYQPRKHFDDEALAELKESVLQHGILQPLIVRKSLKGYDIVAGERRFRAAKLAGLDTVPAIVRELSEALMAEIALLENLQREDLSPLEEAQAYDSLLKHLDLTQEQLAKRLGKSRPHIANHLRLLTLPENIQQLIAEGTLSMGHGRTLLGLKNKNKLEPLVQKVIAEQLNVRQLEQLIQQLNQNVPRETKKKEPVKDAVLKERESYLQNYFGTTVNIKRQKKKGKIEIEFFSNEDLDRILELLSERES

[6] = molecular target: T6, BsSpo0J R80A (UniProt P26497 1-282, R80A)
T6 sequence: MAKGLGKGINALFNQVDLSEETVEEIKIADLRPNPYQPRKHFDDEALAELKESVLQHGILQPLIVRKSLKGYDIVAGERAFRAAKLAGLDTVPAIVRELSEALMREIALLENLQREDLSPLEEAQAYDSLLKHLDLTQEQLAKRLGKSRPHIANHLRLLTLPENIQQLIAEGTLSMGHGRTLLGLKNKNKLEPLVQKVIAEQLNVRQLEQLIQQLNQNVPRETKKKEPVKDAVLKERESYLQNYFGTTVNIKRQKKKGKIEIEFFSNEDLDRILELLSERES

[7] = molecular target: T7, BsSpo0J R79A (UniProt P26497 1-282, R79A)
T7 sequence: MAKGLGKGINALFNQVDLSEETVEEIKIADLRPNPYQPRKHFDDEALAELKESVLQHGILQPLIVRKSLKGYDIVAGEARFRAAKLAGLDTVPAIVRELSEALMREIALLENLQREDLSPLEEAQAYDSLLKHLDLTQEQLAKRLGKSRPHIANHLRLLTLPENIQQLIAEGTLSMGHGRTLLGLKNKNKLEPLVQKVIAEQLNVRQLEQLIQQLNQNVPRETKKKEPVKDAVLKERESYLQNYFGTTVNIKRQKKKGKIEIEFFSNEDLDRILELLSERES

[8] = molecular target: T8, BsSpo0J F81A (UniProt P26497 1-282, F81A)
T8 sequence: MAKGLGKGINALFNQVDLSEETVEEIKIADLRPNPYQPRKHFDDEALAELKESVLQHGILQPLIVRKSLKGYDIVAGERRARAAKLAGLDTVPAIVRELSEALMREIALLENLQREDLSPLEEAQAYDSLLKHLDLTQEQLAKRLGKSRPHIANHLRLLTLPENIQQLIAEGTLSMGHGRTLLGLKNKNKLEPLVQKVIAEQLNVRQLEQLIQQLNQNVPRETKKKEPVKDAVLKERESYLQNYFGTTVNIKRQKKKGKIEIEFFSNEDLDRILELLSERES

[9] = molecular target: T9, BsSpo0J R39A (UniProt P26497 1-282, R39A)
T9 sequence: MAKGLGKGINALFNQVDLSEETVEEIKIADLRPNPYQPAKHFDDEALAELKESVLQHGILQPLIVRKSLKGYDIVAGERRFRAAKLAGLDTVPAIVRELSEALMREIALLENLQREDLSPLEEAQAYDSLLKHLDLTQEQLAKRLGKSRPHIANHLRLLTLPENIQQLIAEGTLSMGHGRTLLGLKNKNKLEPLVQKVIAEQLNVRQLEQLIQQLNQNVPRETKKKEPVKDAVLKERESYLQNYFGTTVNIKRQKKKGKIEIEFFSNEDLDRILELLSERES

Measured: binding result

B1: 39-bp parS (dsDNA)
DNA 1: CAGTTGAATCAGAATGTTCCACGTGAAACAAAGAAAAAA
DNA 2: TTTTTTCTTTGTTTCACGTGGAACATTCTGATTCAACTG
binds: [1] | [2] | [3] | [4] | [5] | [6] | [7] | [8] | [9]
